Data taken from article PMC5067070.

Target: Xenopus laevis ERCC1 (Xenopus laevis (endogenous in egg extract))
Assay: immunodepletion

Substance: Xenopus laevis SLX4 (natural protein)
- percent of SLX4 co-depleted: 90%
